Experimental data as given in patent US20080299544.

B1: NS3/4a PI (protein)
chain: MAPITAYAQQTRGLLGCIITSLTGRDKNQVEGEVQIVSTAAQTFLATCINGVCWTVYHGAGTRTIASPKGPVIQMYTNVDQDLVGWPAPQGSRSLTPCTCGSSDLYLVTRHADVIPVRRRGDSRGSLLSPRPISYLKGSSGGPLLCPAGHAVGIFRAAVCTRGVAKAVDFIPVENLETTMRSPVFTDNSSPPVVPQSFQVAHLHAPTGSGKSTKVPAAYAAQGYKVLVLNPSVAATLGFGAYMSKAHGIDPNIRTGVRTITTGSPITYSTYGKFLADGGCSGGAYDIIICDECHSTDATSILGIGTVLDQAETAGARLVVLATATPPGSVTVPHPNIEEVALSTTGEIPFYGKAIPLEVIKGGRHLIFCHSKKKCDELAAKLVALGINAVAYYRGLDVSVIPPIGDVVVVATDALMTGYTGDFDSVIDCNTCVTQTVDFSLDPTFTIETITLPQDAVSRTQRRGRTGRGKPGIYRFVAPGERPSGMFDSSVLCECYDAGCAWYELTPAETTVRLRAYMNTPGLPVCQDHLEFWEGVFTGLTHIDAHFLSQTKQSGENLPYLVAYQATVCARAQAPPPSWDQMWKCLIRLKPTLHGPTPLLYRLGAVQNEITLTHPVTKYIMTCMSADLEVVTSTWVLVGGVLAALAAYCLSTGCVVIVGRVVLSGKPAIIPDREVLYREFDEMEEC
proteolytic cleavage (SDS-PAGE and anti-hSOD Western blot after 30 minutes at room temperature) (MEFA 7.2): MEFA 7.2, on the other hand, showed no degradation (lane 6, FIGS. 14A and 14B) | proteolytic cleavage (SDS-PAGE and anti-hSOD Western blot after 30 minutes at room temperature) (MEFA 7.1): the NS3/4a cleaved MEFA 7.1 (lane 5, FIGS. 14A and 14B)
